Patent US20100041032A1

Molecular target: Nodal, endogenous in mouse F9 Cripto-/- cells (mouse) (UniProt P43021)
Test: cell-based or functional assay

Chain of UniProt P43021 (P43021 245-354 limits assumed): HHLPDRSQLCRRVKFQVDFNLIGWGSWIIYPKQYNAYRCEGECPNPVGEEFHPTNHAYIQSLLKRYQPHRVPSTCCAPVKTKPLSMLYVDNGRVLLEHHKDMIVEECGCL

**Q.** “human Cripto-1 (protein encoded by TDGF1) (from UniProt P13385 31-150)” was tested. Which luciferase activity, FAST transcription factor dependent (n2)7-luciferase reporter assay in F9 Cripto-/- cells, fold increase compared with control did it give?
**A.** Its luciferase activity, FAST transcription factor dependent (n2)7-luciferase reporter assay in F9 Cripto-/- cells, fold increase compared with control is 4 to 6 fold.
